assay: yeast display, Sf9 membrane polyspecificity reagent, FACS + sequencing; frameworks hold sequencing errors
In short: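 After 36–48 hours of galactose induction, yeast (Saccharomyces cerevisiae BJ5465) displaying a synthetic nanobody library were stained at 4 °C for 1 hour with 10% biotinylated, detergent-solubilized Sf9 membrane reagent. Streptavidin microbeads enriched the stained cells before FACS sorting into low and high (top ~1%) gates on anti-HA and streptavidin fluorescence. Each clone's polyreactivity label reflects its gate of origin.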

Sequence | polyreactivity (PSR sort gate)
QVQLVESGGGLVQAGGSLRLSCAASGFTFFSNAMGWYRQAPGKERELVASISASGSGTYYADSVKGRFTISRDNAKNTVYLQMNSLKPEDTAVYYCAAQYRVNARSGVYRGYRYNYWGQGTQVTVSS | high polyreactivity
QVQLVESGGGLVQAGGSLRLSCAASGFTFFTNAMGWYRQAPGKEREFVAAISKSGSRTYYADSVKGRFTISRDNAKNTVYLQMNSLKPEDTAVYYCAAGYVTLFGFYRYYLWGQGTQVTVSS | high polyreactivity
QVQLVESGGGLVQAGGSLRLSCAASGFTFFVYAMGWYRKAPGKERELVATINWSGASTYYADSVKGRFTISRDNAKNTVYLQMNSLKPEDTAVYYCDKDGHYPLVYLAFDYWGQGTQVTVSS | low polyreactivity
QVQLVESGGGLVQAGGSLRLSCAASGFTFFVYGMGWYRQAPGKERELVATINWSGASTYYADSVKGRFTISRDNAKNTVYLQMNSLKPEDTAVYSCAKDGHYPLVYLAFDYWGQGTQVTVSS | low polyreactivity
QVQLVESGGGLVQAGGSLRLSCAASGFTFGANVMGWYRPAPGKERELVAGITWSGDSTYYADSVKGRFTISRDNAKNTVYLQMNSLKPEDTAVYYCAADVYDGEYILDYDYWGQGTQVTVSS | low polyreactivity
QVQLVESGGGLVQAGGSLRLSCAASGFTFGDNAMGWYRQAPGKERELVAAITSTGGSTNYADSVKGRFTISRDNAKNTVYLQINSLKPEDTAVYYCAAEWLYPHDGGYPRPMDYWGQGTQVTVSS | low polyreactivity
QVQLVESGGGLVQAGGSLRLSCAASGFTFGDYVMGWYRQAPGKERELVAAITTSGTRTSYADSVKGRFTISRDNAKNTVYLQMNSLKPEDTAVYYCAAEHTNYYYFWQAHYYWGQGTQVTVSS | high polyreactivity
QVQLVESGGGLVQAGGSLRLSCAASGFTFGGNAMGWYRQAPGKEREFVAAITRSGGSTYYADSVKGRFTISRDNAKNTVYLQMHSLKPEDTAVYYCAARRSYPLGYDYWGQGTQVTVSS | high polyreactivity
QVQLVESGGGLVQAGGSLRLSCAASGFTFGGNTMGWYRQAPGKERELVAAITQGGSSTYYADSVKGRFTISRDNAKNTVYLQMNSLKPEDTAVYYCNRGSPFGGLRPYDYWGQGTQVTVSS | high polyreactivity
QVQLVESGGGLVQAGGSLRLSCAASGFTFGGYAMGWYRQAPGKERELVAAINWSGGSTDYADSVKGRFTISRDIAKNTVYLQMNSLKPEDTAVYYCAAEGQDGRFYWGQGTQVTVSS | low polyreactivity
QVQLVESGGGLVQAGGSLRLSCAASGFTFGGYAMGWYRQAPGKERELVAAISRSGGSTSYADSVKGRFTISRDNAKNTVYLQMNSLKPEDTAVYYCATLWTTKYWGQGTQVTVSS | high polyreactivity
QVQLVESGGGLVQAGGSLRLSCAASGFTFGGYAMGWYRQAPGKERGLVAAISGSGGRTYYADSVKGRFTISRDNAKNTVYLQMNSLKPEDTAVYYCAAETVTRSFYSEYDYWGQGTQVTVSS | low polyreactivity
QVQLVESGGGLVQAGGSLRLSCAASGFTFGGYAMGWYRQAPGKESEFVAAITGTGGNTFYADSVKGRFTISRDNAKNTVYLQMNSLKPEDTAVYYCAKTWYPWSRYGYYRRYDSWGQGTQVTVSS | low polyreactivity
QVQLVESGGGLVQAGGSLRLSCAASGFTFGHYVMGWYRQAPGKERELVAAITLSGGGTYYADSVKGRFTISRDNAKNTVYLQMNSLKTEDTAVYYCAAVRRAEEFDYWGQGTQVTVSS | low polyreactivity
QVQLVESGGGLVQAGGSLRLSCAASGFTFGLNVMGWYRQAPGKERELVAAISQSGGSTYYADSVKGRFTISRDNAKNTVYLQMNSLKPEDTAVYYCAVDYYPNPSYTVYDDEYWGQGTQVTVSS | low polyreactivity
QVQLVESGGGLVQAGGSLRLSCAASGFTFGLYAMGWYRQAPGKERELVAAITWSGGSTYYADSVKGRFTISRDNAKNTVYLQMNSLKPEDTAFYYCNRLSNNREYDYWGQGTQVTLSS | high polyreactivity
QVQLVESGGGLVQAGGSLRLSCAASGFTFGLYAMGWYRQAPGKERELVAVISSSGGSTYYADSVKGRFTISRDNAKNTVYLQMNSLTPEDTAVYYCAKDFEAGDDYFAYDYWGQGTQVTVSS | low polyreactivity
QVQLVESGGGLVQAGGSLRLSCAASGFTFGLYGMGWYRQAPGKERELVAAISSSGGDTYYADSVKGRFTISRDNAKNTVYLQMNSLKPEDTAVYYCAATADWATHDYWGQGTQVTVSS | low polyreactivity
QVQLVESGGGLVQAGGSLRLSCAASGFTFGLYGMGWYRQAPGKERELVAAISSSGGDTYYADSVKGRFTISRDNAKNTVYLQMNSLKPEDTAVYYCAATADWATYDYWGQGTQVTVSS | low polyreactivity
QVQLVESGGGLVQAGGSLRLSCAASGFTFGNAMGWYRQAPGKERELVAAITVNGGTTNYADSVKGRFTISRDNAKNTVYLQMNSLKPEDTAVYYCNVDTSYGAAGDYWGQGTQVTVSS | low polyreactivity
QVQLVESGGGLVQAGGSLRLSCAASGFTFGPYAMGWYRQAPGKERELVAGITWSGASTYYADSVKGRFTISRDNAKNTVYLQMNSLKPEDTAVYYCARYYRLGSRYDYWGQGTQVTVSS | low polyreactivity
QVQLVESGGGLVQAGGSLRLSCAASGFTFGRIAMGGYRQAPGKERELVASIDWSGGSTYYADSVKGRFTISRDNAKNTVYLQMNSLKPEDTAVYYCAVGPNSVGNRSYGFDYWGQGTQVTVSS | low polyreactivity

Sequence | polyreactivity (PSR sort gate)
QVQLVESGGGLVQAGGSLRLSCAASGFTFGRYAMGWYRPAPGKERELVPAISFSGGRTYYADSVKGRFTISRDNAKNTVYLQMNCMKPEDTAVYYCAARRSEEHVGRSTYARYDYWGQGTQVTVSS | high polyreactivity
QVQLVESGGGLVQAGGSLRLSCAASGFTFGRYAMGWYRQAPGKEREFVAGITWSGGSTSYADSVKGRFTISRDNAKNTVYLQMNSLKREDTAVYYSATRARYTRVHGRRYAYDYWGQGTQVTVSS | high polyreactivity
QVQLVESGGGLVQAGGSLRLSCAASGFTFGRYAMGWYRQAPGKERELVAAISRTGGRTYYADSVKGRFTISRDNAKNTVYLQMNSLKPEDTAVYYCAADKGGTYFNGDSWGQGTLVTVSS | high polyreactivity
QVQLVESGGGLVQAGGSLRLSCAASGFTFGRYARGWYRQAPGKERELVAAISRGGSSTYYADSVKGRFTISRDNAKNTVYLQMNSLKPEDTAVYYCNKVIIWARFDYWGQGTQVTVSS | high polyreactivity
QVQLVESGGGLVQAGGSLRLSCAASGFTFGSNAMGWYRQAPGKERELVAAISSGDSTHYADSVKGRFTISRDNAQNTVYLQMNSLKPEDTAVYYCNADNILYWSTLDYWGQGTQVTVSS | low polyreactivity
QVQLVESGGGLVQAGGSLRLSCAASGFTFGSNAMGWYRQAPGKERELVADITVSGGSTYYADSVKGRFTISRDNAKNTVYLQMNSLKPEDTAVYYCAKDPRTYLDYDYWGQGTQVNVSS | low polyreactivity
QVQLVESGGGLVQAGGSLRLSCAASGFTFGSNTMGWYRQAPGKERELVAAITTSGDSTYYADSVKGRFTISRDNAKNTVYLQMNSLKPEDTAVYYCAARTYYQGGYYYWGPGTQVTVSS | high polyreactivity
QVQLVESGGGLVQAGGSLRLSCAASGFTFGSYAMGWYRQAPGKERELVAAITYRGGSTYYADSVKGRFTISRDNAKNTVYLQMNSLKPEDTAVYYCAADSRRKGNYWGQGTQVTVSS | high polyreactivity
QVQLVESGGGLVQAGGSLRLSCAASGFTFGTYAMGWYRQAPGKERELVAAISARGGSTYYADSVKGRFTISRDNAKNTVYLQMNSLKPEDTAVYYCAAYYGRHVTPPTGYDYWGQGTQVTVSS | high polyreactivity
QVQLVESGGGLVQAGGSLRLSCAASGFTFGTYAMGWYRQAPGKERELVAAITDGGGSTYYADSVKGRFSISRDNAKNTVYLQMNSLKPEDTAVYYCAAEFGYGWYTWLTGNDYWGQGTQVTVSS | low polyreactivity
QVQLVESGGGLVQAGGSLRLSCAASGFTFGTYNMGWSRQAPGKERELVASISRRGGRTDYADSVKGRFTISRHNAKNTVYLQMNSLKPEDTAVYYCNAAYPYGGFPYDYWGQGTQVTVSS | high polyreactivity
QVQLVESGGGLVQAGGSLRLSCAASGFTFGVYAMGWYRQAPGKERELVAAISTTVGSTYYADSVKGRFTISRDNAKNTVYLEMNSLKPEDTAVYYCAAEYTGYINYYIYEYWGQGTQVTVSS | low polyreactivity
QVQLVESGGGLVQAGGSLRLSCAASGFTFGVYAMGWYRQAPGKERELVAAITATGGSTYYADSVKGRFTISRDNAKNTVYLQMNSLKPEDTAVYYCAADLDGTLSVYDYHTTGDDYWGQGTQVTVSS | low polyreactivity
QVQLVESGGGLVQAGGSLRLSCAASGFTFGVYAMGWYRQAPGKERELVAAITRSGGSTYYADSVKGRFTISRDNAKNTVYLQMNSLKPEDTAVYYCASRARDHYGYWGQGTQVTVSS | high polyreactivity
QVQLVESGGGLVQAGGSLRLSCAASGFTFGVYAMGWYRQAPGKERELVAAITWSGGRTYYADSVKGRFTISRDNAKNTVYLQMNSLKPEDTAVYYCAAVFYRYNAVRYDYWGQGTQVTVSS | high polyreactivity
QVQLVESGGGLVQAGGSLRLSCAASGFTFGVYAMGWYRQAPGKERELVATISSSGSTNYADSVKGRFTISRDNAQNPVYLQMNSLKPEDTAVYYCAVYYLYRRRQYYYWGQGTQVTVSS | low polyreactivity
QVQLVESGGGLVQAGGSLRLSCAASGFTFGWNAMGWYRQAPGKERELVAAITSGGITNYADSVKGRFTISRDNAKNTVYLQMNSLKPEDTAVYYCNARPTSRRSWYYWKGYDYWGQGTQVTVSS | high polyreactivity
QVQLVESGGGLVQAGGSLRLSCAASGFTFGWYAMGWYRPAPGKERELVAAITTSGGRTNYADSVKGRFTISRDNAKNTVYLQMNSLKPEDTAVYYCNADSPYYVGGFDYWGQGTQVTVSS | low polyreactivity
QVQLVESGGGLVQAGGSLRLSCAASGFTFGWYAMGWYRQSPGKERELVAAISYSGGSTYYADSVKGRFTISRDNAKNTVYLQMNSLKPEDTAVYYCNAVLRLRVDSWGQGTQVTVSS | high polyreactivity
QVQLVESGGGLVQAGGSLRLSCAASGFTFGYNDMGWYRQAPGKERELVAGIRSGDDTNYADSVKGRFTISRDNAKNTVYLQMNSLKPEDTAVYYCAVGYGDYLYYDYDYWGQGTQVTVSS | low polyreactivity
QVQLVESGGGLVQAGGSLRLSCAASGFTFGYNEMGWYRQAQGKERELVAGIRSGDDTNYADSVKGRFTISRDNAKNTVYLQMNSLKPEDTAVYYCPRDPQFYLHTVPDGAYNYWGQGTQVTVSS | low polyreactivity
